US20250101137A1 (TRUSTEES OF TUFTS COLLEGE, published 2025)

How the values were obtained:
[1] = target: Botulinum neurotoxin serotype B (BoNT/B) holotoxin (Clostridium botulinum, UniProt P10844); experiment: SPR; immobilised form of BoNT/B not stated
[2] = target: Botulinum neurotoxin serotype A1 (BoNT/A) holotoxin (Clostridium botulinum, UniProt P0DPI0); experiment: method not stated

Binder	Kd [1] [nM]	Kd [2] [nM]
ciB-H11 (VHH) VHH: QVQLVETGGGLVQAGGSLRLSCAGSGRSFSAAVMGWFRQAPGKEREFVAALRQIIGSTHYADSVKGRFTISRDNAKNMLYLDMNSLKPTDTAAYYCTAGPPTMLDVSTDREYDTWGQGTQVTVSS	0.26	
ciB-B9 (VHH) VHH: TGGGLVQAGGSLRLSCTASGRTSSFYALAWFRQGPGKEREFVAAIGWIDGSTRYTDSAKGRFTISRDAAKNTMYLQMNSLKPEDTAVYSCTARTQYGGSSADPKNYGYWGQGTQVTVSA	23	
scFv #7 (scFv) scFv: SYELTQPPSMSVALGQTAKVTCQGDNLENFYVQWHQQKPGQAPVTVIFQDNKRPSGIPDRFSGSNSGNTATLTISGARTEDEADYYCQSGHSSIGGVFGSGTSLTVLGQPAAAGGGGSGGGGSGGGGSARQVQLQESGPSLVKPSQTLSLTCTVSGFSLTGNSVTWVRQAPGNVPEWLGGISRGGRTYYDTALKSRLSITRDTSKRQVSLSLSSVTTEDTAMYFCARSAYSTLYDYEYAADIYDWGPGLLVTVSSTSGAPVPYPDPLEPRAA		~1
